Source: patent publication US20230141630
Read-outs that look alike come from different tables or passages of the source.

Key:
[1] = test system: Induro RT (Group II Intron-RT); conditions: 5'-phosphate primer; 50 C 30 min, 10 mM DTT; peak cDNA 7.2 kb
[2] = test system: Induro RT (Group II Intron-RT); conditions: [none]; 38 C 5 min then 60 C 30 min
[3] = test system: Group II Intron-RT (unspecified); conditions: 1 h at 55 C, Induro buffer, 1 ug circRNA, 100 ng RT

“GGATTCTAAAACGGATTACCAGGGATTTCAGTCGATGTACACGTTCGTCACATCTCATCTACCTCCCGGTTTTAATGAATACGATTTTGTACCAGAGTCCTTTGATCGTGACAAAACAATTGCACTGATAATGAATTCCTCTGGATCTACTGGGTTACCTAAGGGTGTGGCCCTTCCGCATAGAACTGCCTGCGTCAGATTCTCGCATGCCAGAGATCCTATTTTTGGCAATCAAATCATTCCGGATACTGCGATTTTAAGTGTTGTTCCATTCCATCACGGTTTTGGAATGTTTACTACACTCGGATATTTGATATGTGGATTTCGAGTCGTCTTAATGTATAGATTTGAAGAAGAGCTGTTTTTACGATCCCTTCAGGATTACAAAATTCAAAGTGCGTTGCTAGTACCAACCCTATTTTCATTCTTCGCCAAAAGCACTCTGATTGACAAATACGATTTATCTAATTTACACGAAATTGCTTCTGGGGGCGCACCTCTTTCGAAAGAAGTCGGGGAAGCGGTTGCAAAACGCTTCCATCTTCCAGGGATACGACAAGGATATGGGCTCACTGAGACTACATCAGCTATTCTGATTACACCCGAGGGGGATGATAAACCGGGCGCGGTCGGTAAAGTTGTTCCATTTTTTGAAGCGAAGGTTGTGGATCTGGATACCGGGAAAACGCTGGGCGTTAATCAGAGAGGCGAATTATGTGTCAGAGGACCTATGATTATGTCCGGTTATGTAAACAATCCGGAAGCGACCAACGCCTTGATTGACAAGGATGGATGGCTACATTCTGGAGACATAGCTTACTGGGACGAAGACGAACACTTCTTCATAGTTGACCGCTTGAAGTCTTTAATTAAATACAAAGGATATCAGGTGGCCCCCGCTGAATTGGAATCGATATTGTTACAACACCCCAACATCTTCGACGCGGGCGTGGCAGGTCTTCCCGACGATGACGCCGGTGAACTTCCCGCCGCCGTTGTTGTTTTGGAGCACGGAAAGACGATGACGGAAAAAGAGATCGTGGATTACGTCGCCAGTCAAGTAACAACCGCGAAAAAGTTGCGCGGAGGAGTTGTGTTTGTGGACGAAGTACCGAAAGGTCTTACCGGAAAACTCGACGCAAGAAAAATCAGAGAGATCCTCATAAAGGCCAAGAAGGGCGGAAAGTCCAAACTCGAGTAAGGTTAACCTGCAGGGAAAAAACAAAAAACAAAACGGCTATTATGCGTTACCGGCGAGACGCTACGGACTT / ACTTGCCTGTCGCTCTATCTTCTTTGTTTTTTCCCTGCAGGTTAACCTTACTC [circRNA 1.8 kb with RT primer]” showed an activity (copies per cDNA) [1] of 4.
Work on “UGAGGUAGUAGGUUGUAUAGUUUACUGACCAGGACGACGACA / TGTCGTCGTCCTGGTCAGTA [42 nt circularized small RNA with RT primer]” yielded an activity (copies per cDNA) [2] greater than 100.
In the case of “AAAATCCGTTGACCTTAAACGGTCGTGTGGGTTCAAGTCCCTCCACCCCCACGCCGGAAACGCAATAGCCGAAAAACAAAAAACAAAAAAACCCCCCTCTCCCTCCCCCCCTAACGTTACTGGCCGAAGCCGCTTGGAATAAGGCCGGTGTGCGTTTGTCTATATGTTATTTTCCACCATATTGCCGTCTTTTGGCAATGTGAGGGCCCGGAAACCTGGCCCTGTCTTCTTGACGAGCATTCCTAGGGGTCTTTCCCCTCTCGCCAAAGGAATGCAAGGTCTGTTGAATGTCGTAAAAAAACAAAAAACAAAACGGCTATTATGCGTTACCGGCGAGACGCTACGGACTT / TCCAGAGGAACTGCTTCCTTC [circRNA 0.4 kb with DNA primer]”, the activity [3] is reported as 4.5 µg cDNA.
